B1: LINE1-full (parent)
chain: UACGUAGGUGGUUUUCCCCUGAUAGUGCUAAGGGGGCCUGGAAGUUUGGACUGGGCAGAGCUCAACACAGCGUGGCAAAGUGGCUGUGGCUAGACUGCCUCUCUGGAUUCCUCGUCACUCAGCAGGGCAUCUCUGAGAGAAAUGCC

Variants of: B1
Test: self-cleavage, relative activity (ratio to wild type); higher = more cleavage; in vitro, sequencing; the parent is a self-cleaving ribozyme

Variant	self-cleavage
U46A A140G	0.9
A43U U132A	1.15
U47A U112C	1.15
U45C C131A	1.67
U26C A31C	1.23
G89U A142U	0.04
U100A A136C	1.05
A117U A124U	1.26
A59C C146U	1.23
A67G C68A	0.05
A67G A136U	0.4
G88A A129G	0.07
A69U C99G	0.09
C116A U119C	1.27
G8U U15C	1.62
U46A A57G	0.54
A31G A138G	0.86
U15A U132C	0.98
U115C A136U	1.99
A30U U143A	0.77
U104A C123U	1.51

Variant	self-cleavage
G4C U100C	1.81
A43G G93A	0.1
U12C C101U	1.02
A42G U108C	1.55
U134C A138G	1.4
A64U U104C	0.62
A77G G126A	2.42
U14C C123U	1.05
U26A U73C	1.15
G4A U102G	0.26
U13A C19A	1.84
U47G C146U	1.69
A43G U85A	0.1
G72A G105U	1.29
G80U U130C	0
A22U A94U	0.17
G35C U46C	1.38
A138G A140U	1.29
G35C C113A	1.68
A22G A64G	0.34
U14C	1.15

Variant	self-cleavage
U14A	1.01
U12G A121U	1.31
A57G U91C	0.4
U5C C76U	1.88
A64C U104A	0.28
U45C A121G	1.71
U13C A77U	0.87
U9A A124U	1.2
G72C U73C	1.13
U15C U91A	0.81
A65G A140U	0.07
G4A C145U	1.11
A69G U102A	0.93
U62A A107G	0.06
A50U U81A	1.1
U87G U100C	0.28
A65G U73G	0.08
A43G U73A	1.53
A24G U143C	1.12
A22G A30U	0.58
U45A U112A	1.21

Variant	self-cleavage
G4A U108G	0.96
C3U A69G	0.53
U1C A24U	1.2
G7U A124G	1.19
A43U C110U	0.83
U12G A94G	0.42
C118U A138U	0.2
A77G U87C	0.42
G8A U46A	2.02
G32A C68U	0
U109C U115A	0.82
U46C U85G	0.37
U15C U45G	1.2
U20A U85A	0.11
C110U A141U	0.84
U108A A136U	1.24
U73C U102C	1.11
C18A A69C	0.13
C68U U81C	0.18
A22G G34U	1.66

From the RNAGym collection of RNA variant scans (doi:10.7554/elife.90254)
